Experiments:
[1] = target: T1, empty phage T5 capsid, undecorated, produced from the mutant phage T5stAmN5-Δdec (UniProt Q6QGD8 160-458; Q6QGD5 11-403); experiment: SPR; 25 °C
T1 chain 1: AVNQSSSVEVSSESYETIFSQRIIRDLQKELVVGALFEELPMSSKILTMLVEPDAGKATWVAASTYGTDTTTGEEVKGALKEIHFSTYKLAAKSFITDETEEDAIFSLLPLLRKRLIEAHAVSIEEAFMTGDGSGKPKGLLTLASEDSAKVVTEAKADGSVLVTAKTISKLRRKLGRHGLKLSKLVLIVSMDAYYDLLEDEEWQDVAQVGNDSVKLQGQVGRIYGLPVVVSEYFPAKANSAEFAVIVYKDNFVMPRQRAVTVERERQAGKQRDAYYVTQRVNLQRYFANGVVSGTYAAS
T1 chain 2: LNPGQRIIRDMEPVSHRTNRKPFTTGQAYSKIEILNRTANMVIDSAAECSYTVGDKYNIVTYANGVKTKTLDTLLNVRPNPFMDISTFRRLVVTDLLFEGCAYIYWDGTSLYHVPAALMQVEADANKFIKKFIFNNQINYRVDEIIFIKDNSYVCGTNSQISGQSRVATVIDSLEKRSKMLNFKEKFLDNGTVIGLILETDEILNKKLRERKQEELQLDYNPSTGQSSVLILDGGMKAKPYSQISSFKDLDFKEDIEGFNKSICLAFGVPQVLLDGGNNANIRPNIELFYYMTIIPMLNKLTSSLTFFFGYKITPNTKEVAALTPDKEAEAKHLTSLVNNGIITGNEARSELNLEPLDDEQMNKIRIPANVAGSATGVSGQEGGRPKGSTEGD

[2] = target: T2, recombinant phage T5 capsid produced from plasmid pETcapT5Δdec (assembled in the absence of pb10) (bacteriophage T5, UniProt Q6QGD8 160-458; Q6QGD5 11-403); experiment: native agarose gel retardation
T2 construct: also called capsids produced from the plasmid pETcapT5Δdec; pETcapT5Δpb10 capsids
T2 sequence 1: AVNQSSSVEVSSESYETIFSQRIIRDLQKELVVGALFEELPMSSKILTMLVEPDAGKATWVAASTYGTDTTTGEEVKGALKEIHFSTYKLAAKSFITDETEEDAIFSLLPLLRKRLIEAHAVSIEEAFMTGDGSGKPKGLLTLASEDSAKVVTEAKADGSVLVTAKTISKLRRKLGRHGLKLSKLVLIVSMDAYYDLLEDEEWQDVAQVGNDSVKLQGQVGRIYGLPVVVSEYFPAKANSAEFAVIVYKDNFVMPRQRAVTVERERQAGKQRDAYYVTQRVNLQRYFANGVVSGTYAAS
T2 sequence 2: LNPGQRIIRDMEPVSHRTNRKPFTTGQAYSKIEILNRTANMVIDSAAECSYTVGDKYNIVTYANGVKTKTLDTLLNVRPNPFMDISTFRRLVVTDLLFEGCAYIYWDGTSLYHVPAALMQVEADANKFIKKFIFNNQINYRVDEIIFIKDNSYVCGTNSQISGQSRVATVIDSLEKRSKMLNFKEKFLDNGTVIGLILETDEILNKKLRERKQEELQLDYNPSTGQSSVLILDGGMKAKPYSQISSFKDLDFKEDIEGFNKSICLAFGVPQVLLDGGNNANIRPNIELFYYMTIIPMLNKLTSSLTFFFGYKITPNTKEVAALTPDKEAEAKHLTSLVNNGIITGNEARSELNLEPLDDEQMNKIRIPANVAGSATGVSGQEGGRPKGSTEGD

[3] = target: T3, empty phage T5 capsid, undecorated, produced from the mutant phage T5stAmN5-Δdec (bacteriophage T5, UniProt Q6QGD8 160-458; Q6QGD5 11-403); experiment: native agarose gel retardation, [protein]/[binding sites on the capsid] = 1+/-0.1
T3 construct: devoid of DNA and of pb10, expanded form; also called empty capsids; pure empty capsids
T3 sequence 1: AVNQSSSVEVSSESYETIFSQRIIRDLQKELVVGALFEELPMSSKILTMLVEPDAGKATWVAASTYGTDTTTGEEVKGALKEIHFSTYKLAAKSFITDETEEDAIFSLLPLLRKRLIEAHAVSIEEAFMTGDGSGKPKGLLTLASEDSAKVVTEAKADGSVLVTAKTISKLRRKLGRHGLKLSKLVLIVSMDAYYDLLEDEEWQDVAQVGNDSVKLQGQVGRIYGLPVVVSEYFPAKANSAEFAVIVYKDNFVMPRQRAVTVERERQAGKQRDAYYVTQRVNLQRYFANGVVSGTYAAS
T3 sequence 2: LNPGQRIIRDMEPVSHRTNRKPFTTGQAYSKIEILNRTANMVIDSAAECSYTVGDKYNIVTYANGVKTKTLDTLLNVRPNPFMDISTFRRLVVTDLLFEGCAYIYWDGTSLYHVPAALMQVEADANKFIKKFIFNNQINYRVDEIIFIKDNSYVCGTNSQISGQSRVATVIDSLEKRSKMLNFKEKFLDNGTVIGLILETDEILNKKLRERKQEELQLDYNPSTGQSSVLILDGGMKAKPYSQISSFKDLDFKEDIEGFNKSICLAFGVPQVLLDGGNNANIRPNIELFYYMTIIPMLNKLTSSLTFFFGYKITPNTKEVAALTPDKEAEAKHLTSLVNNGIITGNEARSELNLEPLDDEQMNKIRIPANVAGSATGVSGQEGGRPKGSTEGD

[4] = target: T1, empty phage T5 capsid, undecorated, …; experiment: SPR

Row | Binder | Kd [1] [pM] | binding result [2] | binding result [3] | Kd [4] [pM]
1 | pb10-OVAH6 (whole protein pb10 fused with ovalbumin, His-tagged) (other) MGIDYSGLRTIFGEKLPESHIFFATVAAHKYVPSYAFLRRELGLSSAHTNRKVWKKFVEAYGKAIPPAPPAPPLTLSKDLTASMSVEEGAALTLSVTATGGTGPYTYAWTKDGSPIPDASGATYTKPTAAAEDAGSYKVTVTDSKQVSKDSTTCAVTVNPTVPGGMGSIGAASMEFCFDVFKELKVHHANENIFYCPIAIMSALAMVYLGAKDSTRTQINKVVRFDKLPGFGDSIEAQCGTSVNVHSSLRDILNQITKPNDVYSFSLASRLYAEERYPILPEYLQCVKELYRGGLEPINFQTAADQARELINSWVESQTNGIIRNVLQPSSVDSQTAMVLVNAIVFKGLWEKAFKDEDTQAMPFRVTEQESKPVQMMYQIGLFRVASMASEKMKILELPFASGTMSMLVLLPDEVSGLEQLESIINFEKLTEWTSSNVMEERKIKVYLPRMKMEEKYNLTSVLMAMGITDVFSSSANLSGISSAESLKISQAVHAAHAEINEAGREVVGSAEAGVDAASVSEEFRADHPFLFCIKHIATNAVLFFGRCVSP | 2.34 | – | – | –
2 | decoration protein pb10 of phage T5 (other, Monomeric; also called native protein pb10; pb10 H6) MGIDYSGLRTIFGEKLPESHIFFATVAAHKYVPSYAFLRRELGLSSAHTNRKVWKKFVEAYGKAIPPAPPAPPLTLSKDLTASMSVEEGAALTLSVTATGGTGPYTYAWTKDGSPIPDASGATYTKPTAAAEDAGSYKVTVTDSKQVSKDSTTCAVTVNPTVPGGLE | 2.25 | binds | binds | 1.11
3 | pb10N-Ter-OVAH6 (N-terminal domain of pb10 fused with ovalbumin, His-tagged) (other) MGIDYSGLRTIFGEKLPESHIFFATVAAHKYVPSYAFLRRELGLSSAHTNRKVWKKFVEAYGKAIPPAPPAPPMGSIGAASMEFCFDVFKELKVHHANENIFYCPIAIMSALAMVYLGAKDSTRTQINKVVRFDKLPGFGDSIEAQCGTSVNVHSSLRDILNQITKPNDVYSFSLASRLYAEERYPILPEYLQCVKELYRGGLEPINFQTAADQARELINSWVESQTNGIIRNVLQPSSVDSQTAMVLVNAIVFKGLWEKAFKDEDTQAMPFRVTEQESKPVQMMYQIGLFRVASMASEKMKILELPFASGTMSMLVLLPDEVSGLEQLESIINFEKLTEWTSSNVMEERKIKVYLPRMKMEEKYNLTSVLMAMGITDVFSSSANLSGISSAESLKISQAVHAAHAEINEAGREVVGSAEAGVDAASVSEEFRADHPFLFCIKHIATNAVLFFGRCVSP | 1.22 | – | – | –
